Assay results as given in IntAct's records for PubMed 24076405.

B1: Centrosomal P4.1-associated protein (Homo sapiens), Q9HC77 (parent)
chain: MFLMPTSSELNSGQNFLTQWMTNPSRAGVILNRGFPILEADKEKRAAVDISTSFPIKGTHFSDSFSFINEEDSLLEEQKLESNNPYKPQSDKSETHTAFPCIKKGPQVAACHSAPGHQEENKNDFIPDLASEFKEGAYKDPLFKKLEQLKEVQQKKQEQLKRQQLEQLQRLMEEQEKLLTMVSGQCTLPGLSLLPDDQSQKHRSPGNTTTGERATCCFPSYVYPDPTQEETYPSNILSHEQSNFCRTAHGDFVLTSKRASPNLFSEAQYQEAPVEKNNLKEENRNHPTGESILCWEKVTEQIQEANDKNLQKHDDSSEVANIEERPIKAAIGERKQTFEDYLEEQIQLEEQELKQKQLKEAEGPLPIKAKPKQPFLKRGEGLARFTNAKSKFQKGKESKLVTNQSTSEDQPLFKMDRQQLQRKTALKNKELCADNPILKKDSKARTKSGSVTLSQKPKMLKCSNRKSLSPSGLKIQTGKKCDGQFRDQIKFENKVTSNNKENVTECPKPCDTGCTGWNKTQGKDRLPLSTGPASRLAAKSPIRETMKESESSLDVSLQKKLETWEREKEKENLELDEFLFLEQAADEISFSSNSSFVLKILERDQQICKGHRMSSTPVKAVPQKTNPADPISHCNRSEDLDHTAREKESECEVAPKQLHSLSSADELREQPCKIRKAVQKSTSENQTEWNARDDEGVPNSDSSTDSEEQLDVTIKPSTEDRERGISSREDSPQVCDDKGPFKDTRTQEDKRRDVDLDLSDKDYSSDESIMESIKHKVSEPSRSSSLSLSKMDFDDERTWTDLEENLCNHDVVLGNESTYGTPQTCYPNNEIGILDKTIKRKIAPVKRGEDLSKSRRSRSPPTSELMMKFFPSLKPKPKSDSHLGNELKLNISQDQPPGDNARSQVLREKIIELETEIEKFKAENASLAKLRIERESALEKLRKEIADFEQQKAKELARIEEFKKEEMRKLQKERKVFEKYTTAARTFPDKKEREEIQTLKQQIADLREDLKRKETKWSSTHSRLRSQIQMLVRENTDLREEIKVMERFRLDAWKRAEAIESSLEVEKKDKLANTSVRFQNSQISSGTQVEKYKKNYLPMQGNPPRRSKSAPPRDLGNLDKGQAASPREPLEPLNFPDPEYKEEEEDQDIQGEISHPDGKVEKVYKNGCRVILFPNGTRKEVSADGKTITVTFFNGDVKQVMPDQRVIYYYAAAQTTHTTYPEGLEVLHFSSGQIEKHYPDGRKEITFPDQTVKNLFPDGQEESIFPDGTIVRVQRDGNKLIEFNNGQRELHTAQFKRREYPDGTVKTVYANGHQETKYRSGRIRVKDKEGNVLMDTEL
partner: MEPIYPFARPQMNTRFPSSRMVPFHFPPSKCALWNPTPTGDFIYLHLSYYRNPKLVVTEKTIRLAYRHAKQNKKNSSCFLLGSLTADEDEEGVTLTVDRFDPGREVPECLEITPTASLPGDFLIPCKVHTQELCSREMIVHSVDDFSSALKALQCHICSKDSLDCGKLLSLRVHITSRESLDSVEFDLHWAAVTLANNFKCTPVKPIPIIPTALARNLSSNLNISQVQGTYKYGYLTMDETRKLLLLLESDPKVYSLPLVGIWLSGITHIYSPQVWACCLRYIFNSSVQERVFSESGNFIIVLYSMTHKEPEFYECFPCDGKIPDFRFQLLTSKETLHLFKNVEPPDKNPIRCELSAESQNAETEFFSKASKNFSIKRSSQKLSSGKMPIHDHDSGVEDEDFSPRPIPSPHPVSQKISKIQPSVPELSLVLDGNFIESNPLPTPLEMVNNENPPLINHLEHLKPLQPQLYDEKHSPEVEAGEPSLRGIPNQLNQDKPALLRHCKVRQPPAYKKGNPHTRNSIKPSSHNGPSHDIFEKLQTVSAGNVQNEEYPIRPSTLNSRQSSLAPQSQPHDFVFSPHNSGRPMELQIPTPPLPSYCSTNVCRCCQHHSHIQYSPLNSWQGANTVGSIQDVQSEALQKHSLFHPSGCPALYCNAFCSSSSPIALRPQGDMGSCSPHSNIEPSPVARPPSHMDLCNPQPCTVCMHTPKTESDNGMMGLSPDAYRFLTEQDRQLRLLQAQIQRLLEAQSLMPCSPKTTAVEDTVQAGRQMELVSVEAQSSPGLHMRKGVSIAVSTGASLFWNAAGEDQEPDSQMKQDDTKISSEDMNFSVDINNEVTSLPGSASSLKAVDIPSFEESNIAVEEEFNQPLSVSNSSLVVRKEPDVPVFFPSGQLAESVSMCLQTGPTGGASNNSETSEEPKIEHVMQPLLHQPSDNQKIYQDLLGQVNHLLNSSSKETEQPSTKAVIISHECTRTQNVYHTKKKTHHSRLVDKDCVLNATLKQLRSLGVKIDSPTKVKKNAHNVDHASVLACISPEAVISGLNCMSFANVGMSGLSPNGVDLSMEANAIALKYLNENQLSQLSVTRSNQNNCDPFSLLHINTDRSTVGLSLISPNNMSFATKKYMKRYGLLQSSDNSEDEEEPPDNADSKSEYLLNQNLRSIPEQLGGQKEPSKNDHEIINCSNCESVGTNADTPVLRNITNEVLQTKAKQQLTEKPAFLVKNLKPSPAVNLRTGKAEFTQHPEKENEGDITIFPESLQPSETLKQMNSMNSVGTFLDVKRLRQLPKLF
B2: SCL-interrupting locus protein (Homo sapiens), Q15468 (parent)
chain: B1 partner

Variants of: B1
Settings: with stil_human STIL

Q: How did the “effect of a mutation on the interaction” value turn out when E1235K was run?
A: decreasing interaction strength

Q: With E1235V as the variant, how does the “effect of a mutation on the interaction” value read?
A: decreasing interaction strength

Q: How did the “effect of a mutation on the interaction” value turn out when Y1208A was run?
A: decreasing interaction strength

Q: How did the “effect of a mutation on the interaction” value turn out when Y1210A was run?
A: decreasing interaction strength

Q: How did the “effect of a mutation on the interaction” value turn out when F1229A was run?
A: decreasing interaction strength

Variants of: B2
Settings: with cpap_human CPAP

Q: K419E was tested. Which “effect of a mutation on the interaction” value did it give?
A: decreasing interaction strength

Q: R405I was tested. Which “effect of a mutation on the interaction” value did it give?
A: decreasing interaction strength
